Here are results for three molecules from publication doi:10.1101/2024.08.08.607204, “Mechanism of ASF1 Inhibition by CDAN1” (bioRxiv, 2024).

The labels stand for the following.
B1: FLAG-tagged CDIN1 (F-CDIN1) (natural protein, UniProt Q9Y2V0 1-281, looked up)
chain: MILTKAQYDEIAQCLVSVPPTRQSLRKLKQRFPSQSQATLLSIFSQEYQKHIKRTHAKHHTSEAIESYYQRYLNGVVKNGAAPVLLDLANEVDYAPSLMARLILERFLQEHEETPPSKSIINSMLRDPSQIPDGVLANQVYQCIVNDCCYGPLVDCIKHAIGHEHEVLLRDLLLEKNLSFLDEDQLRAKGYDKTPDFILQVPVAVEGHIIHWIESKASFGDECSHHAYLHDQFWSYWNRFGPGLVIYWYGFIQELDCNRERGILLKACFPTNIVTLCHSIA
notes: CDIN1 (C15orf41) cDNA synthesized by IDT, in pCDNA3.1; source: Expi293, transiently transfected, in lysate and purified in complexes (anti-FLAG, Strep-Tactin); not shown: 3xFLAG, N-terminal, kept
B2: CDAN1 MA3 domain (ST-CDAN1C, residues 1008-1227) (domain or fragment, human, UniProt Q8IWY9 1008-1227, looked up)
chain: GERRGCSRACEHHAPLPSHLISEIKDVLSLAVGPRDPDEGVSPEHLEQLLGQLGQTLRCRQFLCPPAEQHLAKCSVELASLLVADQIPILGPPAQYRLERGQARRLLHMLLSLWKEDFQGPVPLQLLLSPRNVGLLADTRPREWDLLLFLLRELVEKGLMGRMEIEACLGSLHQAQWPGDFAEELATLSNLFLAEPHLPEPQLRACELVQPNRGTVLAQS
notes: Codanin-1 (CDAN1), MA3 domain, residues 1008-1227; also called Strep-CDAN1C; CDAN1 C-term; source: Expi293, transiently transfected, purified in complex with F-CDIN1 (anti-FLAG, Strep-Tactin); not shown: 3xStrep-II-TEV, N-terminal, kept
B3: Strep-tagged CDAN1 (ST-CDAN1), wildtype (natural protein, human)
chain: MAAVLESLLREEVSVAAVVRWIARSTQGSEDNAGEAAALSSLRALRKEFVPFLLNFLREQSSRVLPQGPPTPAKTPGASAALPGRPGGPPRGSRGARSQLFPPTEAQSTAAEAPLARRGGRRRGPGPARERGGRGLEEGVSGESLPGAGGRRLRGSGSPSRPSLTLSDPPNLSNLEEFPPVGSVPPGPTGTKPSRRINPTPVSEERSLSKPKTCFTSPPISCVPSSQPSALDTSPWGLGLPPGCRSLQEEREMLRKERSKQLQQSPTPTCPTPELGSPLPSRTGSLTDEPADPARVSSRQRLELVALVYSSCIAENLVPNLFLELFFVFQLLTARRMVTAKDSDPELSPAVLDSLESPLFQSIHDCVFFAVQVLECHFQVLSNLDKGTLKLLAENERLLCFSPALQGRLRAAYEGSVAKVSLVMPPSTQAVSFQPETDNRANFSSDRAFHTFKKQRDVFYEVLREWEDHHEEPGWDFEKGLGSRIRAMMGQLSAACSHSHFVRLFQKQLLQMCQSPGGAGGTVLGEAPDVLSMLGADKLGRLWRLQERLMAPQSSGGPCPPPTFPGCQGFFRDFILSASSFQFNQHLMDSLSLKIQELNGLALPQHEPNDEDGESDVDWQGERKQFAVVLLSLRLLAKFLGFVAFLPYRGPEPPPTGELQDSILALRSQVPPVLDVRTLLQRGLQARRAVLTVPWLVEFLSFADHVVPLLEYYRDIFTLLLRLHRSLVLSQESEGKMCFLNKLLLLAVLGWLFQIPTVPEDLFFLEEGPSYAFEVDTVAPEHGLDNAPVVDQQLLYTCCPYIGELRKLLASWVSGSSGRSGGFMRKITPTTTTSLGAQPSQTSQGLQAQLAQAFFHNQPPSLRRTVEFVAERIGSNCVKHIKATLVADLVRQAESLLQEQLVTQGEEGGDPAQLLEILCSQLCPHGAQALALGREFCQRKSPGAVRALLPEETPAAVLSSAENIAVGLATEKACAWLSANITALIRREVKAAVSRTLRAQGPEPAARGERRGCSRACEHHAPLPSHLISEIKDVLSLAVGPRDPDEGVSPEHLEQLLGQLGQTLRCRQFLCPPAEQHLAKCSVELASLLVADQIPILGPPAQYRLERGQARRLLHMLLSLWKEDFQGPVPLQLLLSPRNVGLLADTRPREWDLLLFLLRELVEKGLMGRMEIEACLGSLHQAQWPGDFAEELATLSNLFLAEPHLPEPQLRACELVQPNRGTVLAQS
notes: Codanin-1 (CDAN1) cDNA from Horizon Discovery/Dharmacon; a point mutation of the clone (S421F) was corrected; in pCDNA3.1; Dimer by SEC-MALS and cryo-EM; Same plasmid used in Expi293 (purifications) and in Flp-In 293 T-REx (pulldowns); kept as one molecule; also called WT CDAN1; Strep-CDAN1; source: Expi293, transiently transfected, in lysate and purified in complexes (anti-FLAG, Strep-Tactin); …

Data set [1] concerns the target B3. The data set can be described thus: SEC-MALS; 200 μg of each purified complex at 5 μM on an SRT SEC-300 column with DAWN HELEOS II detector; dn/dc 0.185. To be noted: both partners purified. (In general: SEC sorts molecules by how far they enter the pores of the column.)
Data set [2] concerns the target B1. The data set can be described thus: cryo-EM structure; purified CDAN1 C-term:CDIN1 (C:C) complex crosslinked with BS3, 0.78 mg/mL; single-particle cryo-EM, ~6 Å reconstruction. To be noted: both partners purified.
Data set [3] concerns the molecule itself. The data set is described as follows: SEC-MALS; 200 μg of each purified complex at 5 μM on an SRT SEC-300 column with DAWN HELEOS II detector; dn/dc 0.185.

“And” between values parts separate entries of the source, which are not always exact repeats. Equal entries are not always repeated.

Regarding B1, the “stoichiometry N” value in data set [1] is 2 copies of CDIN1 per two copies of CDAN1.
For B2, the binding result in data set [2] is listed as “binds”.
Take B3: the “stoichiometry N” value in data set [3] is 2 copies of CDAN1 in the C:A complex and 2 copies of CDAN1 in the C:C:A complex.
